From patent publication US20190233493A1 (Sanofi, published 2019)
*1 amine or outer side, *2 acyl side, *3 side chain or, on linkers, in order; H or OH if unused. Primed or numbered codes have the meaning given here. Side-chain parts run from the residue outwards. [ ]: non-standard residue; d: D form. The star is where a group is joined. PEG12 = NCCOCCOCCOCCOCCOCCOCCOCCOCCOCCOCCOCCOCCC(=O)O; γGlu = O=C(O)[C@H](CCC(=O)[*:2])N[*:1]; 1Nal = N[C@@H](Cc1cccc2ccccc12)C(=O)O; Stearoyl = CCCCCCCCCCCCCCCCCC(=O)*; Palmitoyl = CCCCCCCCCCCCCCCC(=O)*; αMeK = C[C@](N)(CCCCN)C(=O)O; Nle = CCCC[C@H](N)C(=O)O; PEG2′ = PEG2 spacer unit; PEG2″ = not defined here; Aib = CC(C)(N)C(=O)O

T1: RXFP1 receptor (UniProt Q9HBX9 1-757, limits assumed)
T1 sequence (looked up): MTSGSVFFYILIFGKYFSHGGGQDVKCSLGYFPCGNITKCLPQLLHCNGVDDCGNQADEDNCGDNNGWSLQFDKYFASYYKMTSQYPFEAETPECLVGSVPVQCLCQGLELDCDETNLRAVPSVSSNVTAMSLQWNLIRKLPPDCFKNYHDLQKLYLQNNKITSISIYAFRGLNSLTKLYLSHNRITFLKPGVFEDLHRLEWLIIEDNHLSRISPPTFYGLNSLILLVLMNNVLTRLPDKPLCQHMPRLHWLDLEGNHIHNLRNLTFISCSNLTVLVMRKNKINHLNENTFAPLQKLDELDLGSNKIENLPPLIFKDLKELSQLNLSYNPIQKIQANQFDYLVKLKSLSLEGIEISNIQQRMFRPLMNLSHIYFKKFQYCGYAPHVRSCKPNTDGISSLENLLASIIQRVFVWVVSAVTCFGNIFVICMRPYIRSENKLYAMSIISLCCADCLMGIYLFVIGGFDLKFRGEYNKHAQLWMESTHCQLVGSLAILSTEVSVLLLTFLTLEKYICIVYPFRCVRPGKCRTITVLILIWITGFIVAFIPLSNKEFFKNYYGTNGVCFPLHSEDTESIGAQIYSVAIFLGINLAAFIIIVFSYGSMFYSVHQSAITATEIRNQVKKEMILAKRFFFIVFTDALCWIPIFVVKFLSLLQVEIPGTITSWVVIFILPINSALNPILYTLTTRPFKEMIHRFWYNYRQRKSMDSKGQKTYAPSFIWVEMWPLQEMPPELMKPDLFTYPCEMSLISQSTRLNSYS

B1: peptide of SEQ ID NO: 66 (peptide)
peptide: Ac-LEGREKVRAK(Ac)I[Aib][Aib]EG[Nle]STWS[Aib]RKK(Ac)K([PEG12-γGlu-γGlu-γGlu-Palmitoyl])-NH2
SMILES: CCCCCCCCCCCCCCCC(=O)N[C@@H](CCC(=O)N[C@@H](CCC(=O)N[C@@H](CCC(=O)NCCOCCOCCOCCOCCOCCOCCOCCOCCOCCOCCOCCOCCC(=O)NCCCC[C@H](NC(=O)[C@H](CCCCNC(C)=O)NC(=O)[C@H](CCCCN)NC(=O)[C@H](CCCNC(=N)N)NC(=O)C(C)(C)NC(=O)[C@H](CO)NC(=O)[C@H](Cc1c[nH]c2ccccc12)NC(=O)[C@@H](NC(=O)[C@H](CO)NC(=O)[C@H](CCCC)NC(=O)CNC(=O)[C@H](CCC(=O)O)NC(=O)C(C)(C)NC(=O)C(C)(C)NC(=O)[C@@H](NC(=O)[C@H](CCCCNC(C)=O)NC(=O)[C@H](C)NC(=O)[C@H](CCCNC(=N)N)NC(=O)[C@@H](NC(=O)[C@H](CCCCN)NC(=O)[C@H](CCC(=O)O)NC(=O)[C@H](CCCNC(=N)N)NC(=O)CNC(=O)[C@H](CCC(=O)O)NC(=O)[C@H](CC(C)C)NC(C)=O)C(C)C)[C@@H](C)CC)[C@@H](C)O)C(N)=O)C(=O)O)C(=O)O)C(=O)O
B2: peptide of SEQ ID NO: 8 (peptide)
peptide: Ac-LEGREKVRAQI[Aib][Aib]EG[Nle]STWS[Aib]RKK([γGlu-γGlu-γGlu-Palmitoyl])-NH2
SMILES: CCCCCCCCCCCCCCCC(=O)N[C@@H](CCC(=O)N[C@@H](CCC(=O)N[C@@H](CCC(=O)NCCCC[C@H](NC(=O)[C@H](CCCCN)NC(=O)[C@H](CCCNC(=N)N)NC(=O)C(C)(C)NC(=O)[C@H](CO)NC(=O)[C@H](Cc1c[nH]c2ccccc12)NC(=O)[C@@H](NC(=O)[C@H](CO)NC(=O)[C@H](CCCC)NC(=O)CNC(=O)[C@H](CCC(=O)O)NC(=O)C(C)(C)NC(=O)C(C)(C)NC(=O)[C@@H](NC(=O)[C@H](CCC(N)=O)NC(=O)[C@H](C)NC(=O)[C@H](CCCNC(=N)N)NC(=O)[C@@H](NC(=O)[C@H](CCCCN)NC(=O)[C@H](CCC(=O)O)NC(=O)[C@H](CCCNC(=N)N)NC(=O)CNC(=O)[C@H](CCC(=O)O)NC(=O)[C@H](CC(C)C)NC(C)=O)C(C)C)[C@@H](C)CC)[C@@H](C)O)C(N)=O)C(=O)O)C(=O)O)C(=O)O
B3: peptide of SEQ ID NO: 9 (peptide)
peptide: Ac-LEGREKVRAQI[Aib][Aib]EG[Nle]STWS[Aib]RKK([γGlu-γGlu-γGlu-Stearoyl])-NH2
SMILES: CCCCCCCCCCCCCCCCCC(=O)N[C@@H](CCC(=O)N[C@@H](CCC(=O)N[C@@H](CCC(=O)NCCCC[C@H](NC(=O)[C@H](CCCCN)NC(=O)[C@H](CCCNC(=N)N)NC(=O)C(C)(C)NC(=O)[C@H](CO)NC(=O)[C@H](Cc1c[nH]c2ccccc12)NC(=O)[C@@H](NC(=O)[C@H](CO)NC(=O)[C@H](CCCC)NC(=O)CNC(=O)[C@H](CCC(=O)O)NC(=O)C(C)(C)NC(=O)C(C)(C)NC(=O)[C@@H](NC(=O)[C@H](CCC(N)=O)NC(=O)[C@H](C)NC(=O)[C@H](CCCNC(=N)N)NC(=O)[C@@H](NC(=O)[C@H](CCCCN)NC(=O)[C@H](CCC(=O)O)NC(=O)[C@H](CCCNC(=N)N)NC(=O)CNC(=O)[C@H](CCC(=O)O)NC(=O)[C@H](CC(C)C)NC(C)=O)C(C)C)[C@@H](C)CC)[C@@H](C)O)C(N)=O)C(=O)O)C(=O)O)C(=O)O

Target: T1, RXFP1 receptor
Test: cell-based or functional assay

Binder	EC50 (nM), OVCAR 5 cells (cAMP)	EMax, OVCAR 5 cells (cAMP)
B1	0.57 nM	83%
Ac-LEGREKVRAQI[Aib][Aib]EG[Nle]STWS[Aib]RKK([PEG2″-PEG2″-γGlu-γGlu-γGlu-Stearoyl])-NH2 [peptide of SEQ ID NO: 67]	0.39 nM	89%
Ac-LEGREKVRAQI[Aib][Aib]EGESTWS[Aib]RKKK([PEG2″-PEG2″-γGlu-γGlu-γGlu-Stearoyl])-NH2 [peptide of SEQ ID NO: 68]	0.63 nM	94%
Ac-LEGREKVR[Aib]QI[Aib][Aib]EG[Nle]STWS[Aib]RKKK([PEG2″-PEG2″-γGlu-γGlu-γGlu-Stearoyl])-NH2 [peptide of SEQ ID NO: 69]	0.56 nM	87%
Ac-LEGREKVRAQI[Aib][Aib]EGQSTWS[Aib]RKKK([PEG2″-PEG2″-γGlu-γGlu-γGlu-Stearoyl])-NH2 [peptide of SEQ ID NO: 70]	0.28 nM	86%
Ac-LEGREKVRAQI[Aib][Aib]EG[Nle]STWS[Aib]RKKK([PEG2″-PEG2″-γGlu-γGlu-γGlu-Stearoyl])-NH2 [peptide of SEQ ID NO: 71]	0.52 nM	87%
Ac-LEGREKVRAK(Ac)I[Aib][Aib]EG[Nle]STWS[Aib]RK(Ac)KK([PEG2″-PEG2″-γGlu-γGlu-γGlu-Stearoyl])-NH2 [peptide of SEQ ID NO: 72]	0.17 nM	93%
Ac-LEGREKVRAK(Ac)I[Aib][Aib]EG[Nle]STWS[Aib]RKK([PEG2″-PEG2″-γGlu-γGlu-γGlu-Stearoyl])-NH2 [peptide of SEQ ID NO: 73]	0.12 nM	90%
Ac-LEGREKVRAQI[Aib][Aib]EG[Nle]STWS[Aib]RKK([PEG2″-PEG2″-PEG2″-γGlu-γGlu-γGlu-Stearoyl])-NH2 [peptide of SEQ ID NO: 74]	0.07 nM	85%
B2	26.7 nM	98%
Ac-LEGREKVRAQI[Aib][Aib]EG[Nle]STWS[Aib]RKKK([PEG2″-PEG2″-PEG2″-γGlu-γGlu-γGlu-Stearoyl])-NH2 [peptide of SEQ ID NO: 75]		88%
Ac-LEGREKVRAQI[Aib][Aib]EG[Nle]STWT[Aib]RKKK([PEG2″-PEG2″-PEG2″-γGlu-γGlu-γGlu-Stearoyl])-NH2 [peptide of SEQ ID NO: 76]	0.8 nM	89%
Ac-LEGREKVRLQI[Aib][Aib]EG[Nle]STWT[Aib]RKKK([PEG2″-PEG2″-PEG2″-γGlu-γGlu-γGlu-Stearoyl])-NH2 [peptide of SEQ ID NO: 77]	2.94 nM	92%
Ac-LEGREKVRAK(Ac)I[Aib][Aib]EG[Nle]STYS[Aib]RKK(Ac)K([PEG2″-PEG2″-PEG2″-γGlu-γGlu-γGlu-Stearoyl])-NH2 [peptide of SEQ ID NO: 78]	1.04 nM	73%
Ac-LEGREKVRAK(Ac)I[Aib][Aib]EG[Nle]ST[1Nal]S[Aib]RKK([PEG2″-PEG2″-PEG2″-γGlu-γGlu-γGlu-Stearoyl])-NH2 [peptide of SEQ ID NO: 79]	0.4 nM	75%
Ac-LEGREKVR[Aib]K(Ac)I[Aib][Aib]EG[Nle]ST[1Nal]S[Aib]RKK([PEG2′-PEG2′-PEG2′-γGlu-γGlu-γGlu-Stearoyl])-NH2 [peptide of SEQ ID NO: 80]	0.73 nM	68%
Ac-LEGREKVRAK(Ac)I[Aib][Aib]EG[Nle]STWS[Aib]RKK(Ac)K([PEG2′-PEG2′-PEG2′-γGlu-γGlu-γGlu-Stearoyl])-NH2 [peptide of SEQ ID NO: 81]	0.22 nM	84%
Ac-LEGREKVRAK(Ac)I[Aib][Aib]EG[Nle]STWS[αMeK]RKK(Ac)K([PEG2′-PEG2′-PEG2′-γGlu-γGlu-γGlu-γGlu-Stearoyl])-NH2 [peptide of SEQ ID NO: 82]	0.02 nM	89%
Ac-LEGREKVRAK(Ac)I[Aib][Aib]EG[Nle]STWS[Aib]RKK([PEG2′-PEG2′-PEG2′-γGlu-γGlu-γGlu-Stearoyl])-NH2 [peptide of SEQ ID NO: 83]	0.85 nM	92%
Ac-LEGREKVRAK(Ac)I[Aib][Aib]EG[Nle]ST[1Nal]S[Aib]RKK(Ac)K([PEG2′-PEG2′-PEG2′-γGlu-γGlu-γGlu-Stearoyl])-NH2 [peptide of SEQ ID NO: 84]	0.09 nM	76%
Ac-LEGREKVR[Aib]K(Ac)I[Aib][Aib]EG[Nle]ST[1Nal]S[Aib]RKK(Ac)K([PEG2′-PEG2′-PEG2′-γGlu-γGlu-γGlu-Stearoyl])-NH2 [peptide of SEQ ID NO: 85]	0.77 nM	75%
B3	11.8 nM	95%
